Measured values published in patent publication US20190218292A1 (LABORATOIRE FRAN AIS DU FRACTIONNEMENT ET DES BIOT …, published 2019).

Tests used:
[1] = biological target: T1, cynomolgus monkey PD1 antigen (cynomolgus monkey, UniProt B0LAJ3 25-170); experiment: ELISA, coated cynomolgus PD1
T1 construct: also called cynomolgus PD1

[2] = biological target: T2, murine PD1 antigen (murine, UniProt Q02242 25-167, limits assumed); experiment: ELISA, coated murine PD1
T2 sequence (looked up): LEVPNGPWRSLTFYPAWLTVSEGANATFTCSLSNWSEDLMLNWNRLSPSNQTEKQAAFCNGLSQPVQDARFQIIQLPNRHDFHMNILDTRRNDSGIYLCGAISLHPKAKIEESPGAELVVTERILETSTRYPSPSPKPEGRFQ

T1 sequence (B0LAJ3 entry or part of it limits assumed, form in doubt): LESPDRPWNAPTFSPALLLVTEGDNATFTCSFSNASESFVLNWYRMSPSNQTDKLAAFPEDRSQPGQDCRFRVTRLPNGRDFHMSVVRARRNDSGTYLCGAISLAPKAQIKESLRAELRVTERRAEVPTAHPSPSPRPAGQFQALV

B1: IgG1_WT nivolumab (antibody, V domains shown)
VH: QVQLVESGGGVVQPGRSLRLDCKASGITFSNSGMHWVRQAPGKGLEWVAVIWYDGSKRYYADSVKGRFTISRDNSKNTLFLQMNSLRAEDTAVYYCATNDDYWGQGTLVTVSS
VL: EIVLTQSPATLSLSPGERATLSCRASQSVSSYLAWYQQKPGQAPRLLIYDASNRATGIPARFSGSGSGTDFTLTISSLEPEDFAVYYCQQSSNWPRTFGQGTKVEIK
In the case of B1, the “OD 450 nm at 0.2 µg/ml” value [1] is reported as 2.39 OD 450 nm and the “OD 450 nm at 0.2 µg/ml” value [2] is reported as 0.305 OD 450 nm.
